In patent publication US20210155670A1 (University of California, published 2021):

Key:
[1] = biological target: T1, Whole Z1 construct (B2m, HLA-A*02:01, FOS), leucine-zippered single-chain MHC-I (human); test: co-expression in CHO cells, purification by the Strep tag on TAPBPR, SDS PAGE
T1 construct: also called single-chain-Fos; single-chain MHC-I-B2M protein

[2] = biological target: T2, single-chain MHC-I (beta2 microglobulin-(GGGS)4-HLA-A*02:01 ectodomain-AviTag), TEV-digested (unzippered), … (human); test: size exclusion chromatography after TEV cleavage
T2 construct: also called peptide receptive MHC-I complex; unzippered MHC-I

[3] = biological target: single-chain HLA-A*24:02 (beta2 microglobulin-linker-HLA-A*24:02 ectodomain-AviTag), TEV-digested, CHO-derived (human); test: co-expression, Strep tag purification, TEV digestion, size exclusion chromatography

B1: Whole Z2 construct (TAPBPR, JUN), leucine-zippered TAPBPR with Strep tags (other)
chain: KPHPAEGQWRAVDVVLDCFLVKDGAHRGALASSEDRARASLVLKQVPVLDDGSLEDFTDFQGGTLAQDDPPIIFEASVDLVQIPQAEALLHADASGKEVTCEISRYFLQMTETTVKTAAWFMANVQVSGGGPSISLVMKTPRVAKNEVLWHPTLNLPLSPQGTVRTAVEFQVMTQTQSLSFLLGSSASLDCGFSMAPGLDLISVEWRLQHKGRGQLVYSWTAGQGQAVRKGATLEPAQLGMARDASLTLPGLTIQDEGTYICQITTSLYRAQQIIQLNIQASPKVRLSLANEALLPTLICDIAGYYPLDVVVTWTREELGGSPAQVSGASFSSLRQSVAGTYSISSSLTAEGSAGATYTCQVTHISLEEPLGASTQVVPPERRLEGAGGSGGGGSGGGASGGGGSENLYFQSSGGGGSKVDGGGGGRIARLEEKVKTLKAQNSELASTANMLREQVAQLKQVMNWSHPQFEKGGGSGGGSGGSAWSHPQFEKAA
binding result [1]: binds

B2: TAPBPR (luminal domain, C94A), TEV-digested (unzippered) (other)
chain: KPHPAEGQWRAVDVVLDCFLVKDGAHRGALASSEDRARASLVLKQVPVLDDGSLEDFTDFQGGTLAQDDPPIIFEASVDLVQIPQAEALLHADASGKEVTCEISRYFLQMTETTVKTAAWFMANVQVSGGGPSISLVMKTPRVAKNEVLWHPTLNLPLSPQGTVRTAVEFQVMTQTQSLSFLLGSSASLDCGFSMAPGLDLISVEWRLQHKGRGQLVYSWTAGQGQAVRKGATLEPAQLGMARDASLTLPGLTIQDEGTYICQITTSLYRAQQIIQLNIQASPKVRLSLANEALLPTLICDIAGYYPLDVVVTWTREELGGSPAQVSGASFSSLRQSVAGTYSISSSLTAEGSAGATYTCQVTHISLEEPLGASTQVVPPERRLEGAGGSGGGGSGGGASGGGGSENLYFQS
notes: also called un-zippered (TEV cleaved) TAPBPR; chaperone TAPBPR
binding result [2]: binds | binding result [3]: binds
